According to US20030153520A1 (published 2003):

Columns and labels:
[1] = target: endogenous SNAP25 (rat brain extract; PC12 cells) (rat, UniProt P60881 1-206); experiment: co-immunoprecipitation with anti-SNAP25 from Triton X-100 extract of rat brain
Method: FIG. 4A illustrates that TI-VAMP forms a complex with SNAP25 in Triton X100 extract of rat brain. Immunoprecipitation with anti-SNAP25 antibodies was performed from Triton X100 soluble extract of rat brain as described in the Materials and Methods section of example 1 and immunoprecipitated proteins were detected by western blot analysis with the indicated antibodies (synaptobrevin 2, Sb2: cellubrevin, Cb: U, unbound, B: bound to anti-SNAP25 immunobeads). The bound fraction corresponded to a 65-fold enrichment compared to unbound. The SNAP25 TI-VAMP complex seemed more abundant than the SNAP25 synaptobrevin 2 one but this may only reflect a lower expression level of TI-VAMP compared to synaptobrevin 2 in the adult brain.
Immunoprecipitation: Immunoprecipitation from rat brain was performed using a Triton X-100 soluble membrane fraction prepared as follows: two adult rat brains were homogenized, with a glass teflon homogenizer (9 strokes at 900 rpm) in 25 ml of 0.32M sucrose containing a protease inhibitor cocktail. All the steps were carried out at 4° C. After 10 min centrifugation at 800 g the supernatant was centrifuged at 184000 g for 1 hour, obtaining a cytosolic and a membrane fraction in the supernatant and the pellet, respectively. […]

6xhis-tagged SNAP25A = target: T1, 6xhis-tagged SNAP25A (UniProt P60881-2 1-206); experiment: overlay assay
T1 construct: also called 6xhisSNAP25; 6xhis-SNAP25; not shown: 6xhis tag
T1 sequence (P60881 other isoform, or with tags, fused parts or gaps limits assumed): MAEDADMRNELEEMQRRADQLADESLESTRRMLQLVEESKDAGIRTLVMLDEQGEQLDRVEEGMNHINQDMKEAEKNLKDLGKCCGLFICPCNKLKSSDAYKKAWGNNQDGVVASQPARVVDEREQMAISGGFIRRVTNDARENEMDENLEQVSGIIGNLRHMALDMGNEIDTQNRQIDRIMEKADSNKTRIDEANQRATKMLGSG
Method: The binding of GST, GST-Cyt-TIVAMP, GST-ter-TIVAMP, or GST-CC-TIVAMP was measured by overlay over immobilized 6xhis-SNAP25 (indicated by the arrow). GST-CC-TIVAMP bound efficiently to immobilized 6xhis-SNAP25. Little binding of GST-Cyt-TIVAMP and none of GST and GST-Nter-TIVAMP were observed.
Overlay assay: The corresponding GST fusion proteins and GST alone were produced and purified as previously described, 6xhis-tagged SNAP25A (6xhisSNAP25, bacterial strain is available from G. Schiavo, ICRF, London, UK) was purified. 6xhisSNAP25 was run on SDS-PAGE and western blotted onto Immobilon-P membrane (Millipore, Bedford, Mass.). The amount of 6xhisSNAP25 corresponds to 1.25 μg/mm of membrane, 4 mm strips of the membrane were cut and incubated in 150 mM NaCl, 5% non fat dry milk. 50 mM phosphate pH7.5 buffer for 1 hour at room temperature. The strips were then incubated with 10 nM the GST-fusion proteins overnight at 4° C. in buffer B (3% BSA, 0.1%, Tween20 20 mM Tris pH: 7.5) containing 1 mM DTT. The strips were rinsed three times in buffer B at room temperature, incubated with anti-GST antibodies in butfer B for 1 hour, rinsed in buffer B three times and incubated with alkaline phosphatase-coupled sheep anti-mouse antibodies. The detection as carried out simultaneously for all the strips, for the same time, using a kit from Promega (Madison, Wis.).

Sequence of endogenous SNAP25 (rat brain extract; PC12 cells) (P60881 whole entry): as the sequence (P60881 other isoform, or with tags, fused parts or gaps limits assumed) above, with D58E, V60I, N65D, H66Q, Q69K, K79T, C84F, F88C, I89V counted along it

Row | Binder | binding result [1] | binding result (6xhis-tagged SNAP25A)
1 | endogenous cellubrevin (rat brain) (other, UniProt P63025 1-103, looked up, also called Cb) MSTGVPSGSSAATGSNRRLQQTQNQVDEVVDIMRVNVDKVLERDQKLSELDDRADALQAGASQFETSAAKLKRKYWWKNCKMWAIGISVLVIIVIIIIVWCVS | no binding | 
2 | GST-Cyt-TIVAMP (other, also called full cytoplasmic domain of TI-VAMP fused to GST; not shown: glutathione S-transferase (GST) tag encoded by the pGEX4T vector (Pharmacia)) MAILFAVVARGTTILAKHAWCGGNFLEVTEQILAKIPSENNKLTYSHGNYLFHYICQDRIVYLCITDDDFERSRAFNFLNEIKKRFQTTYGSRAQTALPYAMNSEFSSVLAAQLKHHSENKGLDKVMETQAQVDELKGIMVRNIDLVAQRGERLELLIDKTENLVDSSVTFKTTSRNLARAMCMKNLK |  | binds
